# Assay results taken from US20250074949A1 (BRIGHAM AND WOMEN S HOSPITAL, published 2025).
# T1: mouse LY6A (mouse, UniProt P05533 27-112)
# T1 construct: whole, on cells
# T1 sequence: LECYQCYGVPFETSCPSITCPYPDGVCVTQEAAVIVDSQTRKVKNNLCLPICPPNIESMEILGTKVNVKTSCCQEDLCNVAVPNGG
# B1: AAV.CPP.21 (other)
# chain: MAADGYLPDWLEDNLSEGIREWWALKPGAPQPKANQQHQDNARGLVLPGYKYLGPGNGLDKGEPVNAADAAALEHDKAYDQQLKAGDNPYLKYNHADAEFQERLKEDTSFGGNLGRAVFQAKKRLLEPLGLVEEAAKTAPGKKRPVEQSPQEPDSSAGIGKSGAQPAKKRLNFGQTGDTESVPDPQPIGEPPAAPSGVGSLTMASGGGAPVADNNEGADGVGSSSGNWHCDSQWLGDRVITTSTRTWALPTYNNHLYKQISNSTSGGSSNDNAYFGYSTPWGYFDFNRFHCHFSPRDWQRLINNNWGFRPKRLNFKLFNIQVKEVTDNNGVKTIANNLTSTVQVFTDSDYQLPYVLGSAHEGCLPPFPADVFMIPQYGYLTLNDGSQAVGRSSFYCLEYFPSQMLRTGNNFQFSYEFENVPFHSSYAHSQSLDRLMNPLIDQYLYYLSKTINGSGQNQQTLKFSVAGPSNMAVQGRNYIPGPSYRQQRVSTTVTQNNNSEFAWPGASSWALNGRNSLMNPGPAMASHKEGEDRFFPLSGSLIFGKQGTGRDNVDADKVMITNEEEIKTTNPVATESYGQVATNHQSAQTVSALFKAQAQTGWVQNQGILPGMVWQDRDVYLQGPIWAKIPHTDGNFHPSPLMGGFGMKHPPPQILIKNTPVPADPPTAFNKDKLNSFITQYSTGQVSVEIEWELQKENSKRWNPEIQYTSNYYKSNNVEFAVNTEGVYSEPRPIGTRYLTRNL
# notes: Whole recombinant AAV particle in the assay; also called Bip2.6 insert TVSALFK
# B2: AAV.CPP.16 (other)
# chain: MAADGYLPDWLEDNLSEGIREWWALKPGAPQPKANQQHQDNARGLVLPGYKYLGPGNGLDKGEPVNAADAAALEHDKAYDQQLKAGDNPYLKYNHADAEFQERLKEDTSFGGNLGRAVFQAKKRLLEPLGLVEEAAKTAPGKKRPVEQSPQEPDSSAGIGKSGAQPAKKRLNFGQTGDTESVPDPQPIGEPPAAPSGVGSLTMASGGGAPVADNNEGADGVGSSSGNWHCDSQWLGDRVITTSTRTWALPTYNNHLYKQISNSTSGGSSNDNAYFGYSTPWGYFDFNRFHCHFSPRDWQRLINNNWGFRPKRLNFKLFNIQVKEVTDNNGVKTIANNLTSTVQVFTDSDYQLPYVLGSAHEGCLPPFPADVFMIPQYGYLTLNDGSQAVGRSSFYCLEYFPSQMLRTGNNFQFSYEFENVPFHSSYAHSQSLDRLMNPLIDQYLYYLSKTINGSGQNQQTLKFSVAGPSNMAVQGRNYIPGPSYRQQRVSTTVTQNNNSEFAWPGASSWALNGRNSLMNPGPAMASHKEGEDRFFPLSGSLIFGKQGTGRDNVDADKVMITNEEEIKTTNPVATESYGQVATNHQSAQTVSALKAQAQTGWVQNQGILPGMVWQDRDVYLQGPIWAKIPHTDGNFHPSPLMGGFGMKHPPPQILIKNTPVPADPPTAFNKDKLNSFITQYSTGQVSVEIEWELQKENSKRWNPEIQYTSNYYKSNNVEFAVNTEGVYSEPRPIGTRYLTRNL
# notes: Whole recombinant AAV particle in the assay; also called Bip2.1 insert TVSALK
# Target: T1, mouse LY6A
# Assay: AAV binding to LY6A-transfected HEK293T cells on ice, bound viral genomes counted by qPCR
row,Binder,binding result
1,B1,no binding (tested: MOI of 10000)
2,B2,no binding (tested: MOI of 10000)
